# B1: CPEB3 Ribozyme (parent)
# chain: UAACAGGGGGCCACAGCAGAAGCGUUCACGUCGCAGCCCCUGUCAGAUUCUGGUGAAUCUGCGAAUUCUGCUGUAUAUCUC
# Variants of: B1
# Test: self-cleavage, relative activity (ratio to wild type); higher = more cleavage; in vitro, sequencing
# How it was run: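 After error-prone PCR and barcoding, CPEB3 ribozyme mutant libraries were transcribed with T7 RNA polymerase at 37°C for 5 hours, then given 15 min with DNase I before an EDTA stop, and they cleaved during both steps. Reverse transcription with template switching preceded Illumina sequencing. Relative activity divides a variant's cleaved/total read fraction by the unmutated ribozyme's. At least 5 reads were required per variant, and three batches were averaged.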
row,Variant,self-cleavage
1,UAACAGGGGGCCACAGCAGAAGCGUUCACGUCGCAGCCCCUGUCACAUUCUGGAGAAUCUGCGAAUUCUGCUGUAUAUCUC [G46C U54A],0.15
2,UAACAGGGGGCCACAGCAGAAGCGUUCACGUCGCAGCCCCUGUCACAUUCUGGUGAAUCAGCGAAUUCUGCUGUAUAUCUC [G46C U60A],0.11
3,UAACAGGGGGCCACAGCAGAAGCGUUCACGUCGCAGCCCCUGUCACAUUCUGGUGAAUCCGCGAAUUCUGCUGUAUAUCUC [G46C U60C],0.2
4,UAACAGGGGGCCACAGCAGAAGCGUUCACGUCGCAGCCCCUGUCACAUUCUGGUGAAUCUGCGAAUUCUGCAGUAUAUCUC [G46C U72A],0.25
5,UAACAGGGGGCCACAGCAGAAGCGUUCACGUCGCAGCCCCUGUCACAUUCUGGUGAAUCUGCGAAUUCUGCUGUAAAUCUC [G46C U76A],0.22
6,UAACAGGGGGCCACAGCAGAAGCGUUCACGUCGCAGCCCCUGUCACAUUCUGGUGAAUCUGCGAAUUCUGCUGUACAUCUC [G46C U76C],0.5
7,UAACAGGGGGCCACAGCAGAAGCGUUCACGUCGCAGCCCCUGUCACAUUCUGGUGAAUCUGCGAAUUCUGCUGUAUACCUC [G46C U78C],0.21
8,UAACAGGGGGCCACAGCAGAAGCGUUCACGUCGCAGCCCCUGUCACAUUCUGGUGAAUCUGCGAAUUCUGCUGUAUAUCAC [G46C U80A],0.2
9,UAACAGGGGGCCACAGCAGAAGCGUUCACGUCGCAGCCCCUGUCAUAUUCUGGUGAAUCUGCGAAUUCUGCUGUAUAUCUC [G46U],0.28
10,UAACAGGGGGCCACAGCAGAAGCGUUCACGUCGCAGCCCCUGUCAUGUUCUGGUGAAUCUGCGAAUUCUGCUGUAUAUCUC [G46U A47G],0.15
11,UAACAGGGGGCCACAGCAGAAGCGUUCACGUCGCAGCCCCUGUCAUAUUCUGGUGGAUCUGCGAAUUCUGCUGUAUAUCUC [G46U A56G],0.18
12,UAACAGGGGGCCACAGCAGAAGCGUUCACGUCGCAGCCCCUGUCAUAUUCUGGUGUAUCUGCGAAUUCUGCUGUAUAUCUC [G46U A56U],0.17
13,UAACAGGGGGCCACAGCAGAAGCGUUCACGUCGCAGCCCCUGUCAUAUUCUGGUGAGUCUGCGAAUUCUGCUGUAUAUCUC [G46U A57G],0.22
14,UAACAGGGGGCCACAGCAGAAGCGUUCACGUCGCAGCCCCUGUCAUAUUCUGGUGAAUCUGCGGAUUCUGCUGUAUAUCUC [G46U A64G],0.16
15,UAACAGGGGGCCACAGCAGAAGCGUUCACGUCGCAGCCCCUGUCAUAUUCUGGUGAAUCUGCGUAUUCUGCUGUAUAUCUC [G46U A64U],0.18
16,UAACAGGGGGCCACAGCAGAAGCGUUCACGUCGCAGCCCCUGUCAUAUUCUGGUGAAUCUGCGAGUUCUGCUGUAUAUCUC [G46U A65G],0.07
17,UAACAGGGGGCCACAGCAGAAGCGUUCACGUCGCAGCCCCUGUCAUAUUCUGGUGAAUCUGCGAAUUCUGCUGUCUAUCUC [G46U A75C],0.37
18,UAACAGGGGGCCACAGCAGAAGCGUUCACGUCGCAGCCCCUGUCAUAUUCUGGUGAAUCUGCGAAUUCUGCUGUGUAUCUC [G46U A75G],0.22
19,UAACAGGGGGCCACAGCAGAAGCGUUCACGUCGCAGCCCCUGUCAUAUUCUGGUGAAUCUGCGAAUUCUGCUGUAUGUCUC [G46U A77G],0.2
20,UAACAGGGGGCCACAGCAGAAGCGUUCACGUCGCAGCCCCUGUCAUAUUCUGGUGAAUCUGCGAAUUUUGCUGUAUAUCUC [G46U C68U],0.23
21,UAACAGGGGGCCACAGCAGAAGCGUUCACGUCGCAGCCCCUGUCAUAUUCUGCUGAAUCUGCGAAUUCUGCUGUAUAUCUC [G46U G53C],0.23
22,UAACAGGGGGCCACAGCAGAAGCGUUCACGUCGCAGCCCCUGUCAUAUUCUGGUGAAUCUGCGAAUUCUACUGUAUAUCUC [G46U G70A],0.08
23,UAACAGGGGGCCACAGCAGAAGCGUUCACGUCGCAGCCCCUGUCAUAUUCUGGUGAAUCUGCGAAUUCUGCUAUAUAUCUC [G46U G73A],0.81

row,Variant,self-cleavage
1,UAACAGGGGGCCACAGCAGAAGCGUUCACGUCGCAGCCCCUGUCAUAGUCUGGUGAAUCUGCGAAUUCUGCUGUAUAUCUC [G46U U48G],0.14
2,UAACAGGGGGCCACAGCAGAAGCGUUCACGUCGCAGCCCCUGUCAUAUACUGGUGAAUCUGCGAAUUCUGCUGUAUAUCUC [G46U U49A],0.29
3,UAACAGGGGGCCACAGCAGAAGCGUUCACGUCGCAGCCCCUGUCAUAUUCCGGUGAAUCUGCGAAUUCUGCUGUAUAUCUC [G46U U51C],0.28
4,UAACAGGGGGCCACAGCAGAAGCGUUCACGUCGCAGCCCCUGUCAUAUUCUGGCGAAUCUGCGAAUUCUGCUGUAUAUCUC [G46U U54C],0.14
5,UAACAGGGGGCCACAGCAGAAGCGUUCACGUCGCAGCCCCUGUCAUAUUCUGGGGAAUCUGCGAAUUCUGCUGUAUAUCUC [G46U U54G],0.16
6,UAACAGGGGGCCACAGCAGAAGCGUUCACGUCGCAGCCCCUGUCAUAUUCUGGUGAACCUGCGAAUUCUGCUGUAUAUCUC [G46U U58C],0.17
7,UAACAGGGGGCCACAGCAGAAGCGUUCACGUCGCAGCCCCUGUCAUAUUCUGGUGAAUCAGCGAAUUCUGCUGUAUAUCUC [G46U U60A],0.38
8,UAACAGGGGGCCACAGCAGAAGCGUUCACGUCGCAGCCCCUGUCAUAUUCUGGUGAAUCCGCGAAUUCUGCUGUAUAUCUC [G46U U60C],0.19
9,UAACAGGGGGCCACAGCAGAAGCGUUCACGUCGCAGCCCCUGUCAUAUUCUGGUGAAUCUGCGAACUCUGCUGUAUAUCUC [G46U U66C],0.16
10,UAACAGGGGGCCACAGCAGAAGCGUUCACGUCGCAGCCCCUGUCAUAUUCUGGUGAAUCUGCGAAUACUGCUGUAUAUCUC [G46U U67A],0.23
11,UAACAGGGGGCCACAGCAGAAGCGUUCACGUCGCAGCCCCUGUCAUAUUCUGGUGAAUCUGCGAAUCCUGCUGUAUAUCUC [G46U U67C],0.03
12,UAACAGGGGGCCACAGCAGAAGCGUUCACGUCGCAGCCCCUGUCAUAUUCUGGUGAAUCUGCGAAUUCAGCUGUAUAUCUC [G46U U69A],0.22
13,UAACAGGGGGCCACAGCAGAAGCGUUCACGUCGCAGCCCCUGUCAUAUUCUGGUGAAUCUGCGAAUUCCGCUGUAUAUCUC [G46U U69C],0.53
14,UAACAGGGGGCCACAGCAGAAGCGUUCACGUCGCAGCCCCUGUCAUAUUCUGGUGAAUCUGCGAAUUCUGCAGUAUAUCUC [G46U U72A],0.37
15,UAACAGGGGGCCACAGCAGAAGCGUUCACGUCGCAGCCCCUGUCAUAUUCUGGUGAAUCUGCGAAUUCUGCCGUAUAUCUC [G46U U72C],0.22
16,UAACAGGGGGCCACAGCAGAAGCGUUCACGUCGCAGCCCCUGUCAUAUUCUGGUGAAUCUGCGAAUUCUGCGGUAUAUCUC [G46U U72G],0.25
17,UAACAGGGGGCCACAGCAGAAGCGUUCACGUCGCAGCCCCUGUCAUAUUCUGGUGAAUCUGCGAAUUCUGCUGAAUAUCUC [G46U U74A],0.46
18,UAACAGGGGGCCACAGCAGAAGCGUUCACGUCGCAGCCCCUGUCAUAUUCUGGUGAAUCUGCGAAUUCUGCUGUACAUCUC [G46U U76C],0.38
19,UAACAGGGGGCCACAGCAGAAGCGUUCACGUCGCAGCCCCUGUCAUAUUCUGGUGAAUCUGCGAAUUCUGCUGUAUACCUC [G46U U78C],0.27
20,UAACAGGGGGCCACAGCAGAAGCGUUCACGUCGCAGCCCCUGUCAUAUUCUGGUGAAUCUGCGAAUUCUGCUGUAUAUCCC [G46U U80C],0.3
21,UAACAGGGGGCCACAGCAGAAGCGUUCACGUCGCAGCCCCUGUCAGCUUCUGGUGAAUCUGCGAAUUCUGCUGUAUAUCUC [A47C],0.4
22,UAACAGGGGGCCACAGCAGAAGCGUUCACGUCGCAGCCCCUGUCAGCUUCUGGUGAGUCUGCGAAUUCUGCUGUAUAUCUC [A47C A57G],0.5
23,UAACAGGGGGCCACAGCAGAAGCGUUCACGUCGCAGCCCCUGUCAGCUUCUGGUGAAUCUGCGGAUUCUGCUGUAUAUCUC [A47C A64G],0.26

row,Variant,self-cleavage
1,UAACAGGGGGCCACAGCAGAAGCGUUCACGUCGCAGCCCCUGUCAGCUUCUGGUGAAUCUGCGUAUUCUGCUGUAUAUCUC [A47C A64U],0.45
2,UAACAGGGGGCCACAGCAGAAGCGUUCACGUCGCAGCCCCUGUCAGCUUCUGGUGAAUCUGCGAUUUCUGCUGUAUAUCUC [A47C A65U],0.12
3,UAACAGGGGGCCACAGCAGAAGCGUUCACGUCGCAGCCCCUGUCAGCUUCUGGUGAAUCUGCGAAUUCUGCUGUUUAUCUC [A47C A75U],0.3
4,UAACAGGGGGCCACAGCAGAAGCGUUCACGUCGCAGCCCCUGUCAGCUUCUGGUGAAUCUGCGAAUUCUGCUGUAUGUCUC [A47C A77G],0.34
5,UAACAGGGGGCCACAGCAGAAGCGUUCACGUCGCAGCCCCUGUCAGCUUCUGGUGAAUUUGCGAAUUCUGCUGUAUAUCUC [A47C C59U],0.18
6,UAACAGGGGGCCACAGCAGAAGCGUUCACGUCGCAGCCCCUGUCAGCUUCUGGUGAAUCUGUGAAUUCUGCUGUAUAUCUC [A47C C62U],0.18
7,UAACAGGGGGCCACAGCAGAAGCGUUCACGUCGCAGCCCCUGUCAGCUUCUGGUGAAUCUGCGAAUUCUGUUGUAUAUCUC [A47C C71U],0.13
8,UAACAGGGGGCCACAGCAGAAGCGUUCACGUCGCAGCCCCUGUCAGCUUCUGGUUAAUCUGCGAAUUCUGCUGUAUAUCUC [A47C G55U],0.16
9,UAACAGGGGGCCACAGCAGAAGCGUUCACGUCGCAGCCCCUGUCAGCUUCUGGUGAAUCUGCAAAUUCUGCUGUAUAUCUC [A47C G63A],0.56
10,UAACAGGGGGCCACAGCAGAAGCGUUCACGUCGCAGCCCCUGUCAGCUUCUGGUGAAUCUGCGAAUUCUGCUAUAUAUCUC [A47C G73A],0.85
11,UAACAGGGGGCCACAGCAGAAGCGUUCACGUCGCAGCCCCUGUCAGCUUCAGGUGAAUCUGCGAAUUCUGCUGUAUAUCUC [A47C U51A],0.33
12,UAACAGGGGGCCACAGCAGAAGCGUUCACGUCGCAGCCCCUGUCAGCUUCUGGUGAAUCAGCGAAUUCUGCUGUAUAUCUC [A47C U60A],0.15
13,UAACAGGGGGCCACAGCAGAAGCGUUCACGUCGCAGCCCCUGUCAGCUUCUGGUGAAUCUGCGAAUACUGCUGUAUAUCUC [A47C U67A],0.23
14,UAACAGGGGGCCACAGCAGAAGCGUUCACGUCGCAGCCCCUGUCAGCUUCUGGUGAAUCUGCGAAUCCUGCUGUAUAUCUC [A47C U67C],0.12
15,UAACAGGGGGCCACAGCAGAAGCGUUCACGUCGCAGCCCCUGUCAGCUUCUGGUGAAUCUGCGAAUUCCGCUGUAUAUCUC [A47C U69C],0.25
16,UAACAGGGGGCCACAGCAGAAGCGUUCACGUCGCAGCCCCUGUCAGCUUCUGGUGAAUCUGCGAAUUCUGCAGUAUAUCUC [A47C U72A],0.26
17,UAACAGGGGGCCACAGCAGAAGCGUUCACGUCGCAGCCCCUGUCAGCUUCUGGUGAAUCUGCGAAUUCUGCUGCAUAUCUC [A47C U74C],0.7
18,UAACAGGGGGCCACAGCAGAAGCGUUCACGUCGCAGCCCCUGUCAGCUUCUGGUGAAUCUGCGAAUUCUGCUGUAAAUCUC [A47C U76A],0.48
19,UAACAGGGGGCCACAGCAGAAGCGUUCACGUCGCAGCCCCUGUCAGCUUCUGGUGAAUCUGCGAAUUCUGCUGUAUAACUC [A47C U78A],0.51
20,UAACAGGGGGCCACAGCAGAAGCGUUCACGUCGCAGCCCCUGUCAGCUUCUGGUGAAUCUGCGAAUUCUGCUGUAUACCUC [A47C U78C],0.54
21,UAACAGGGGGCCACAGCAGAAGCGUUCACGUCGCAGCCCCUGUCAGCUUCUGGUGAAUCUGCGAAUUCUGCUGUAUAGCUC [A47C U78G],0.46
22,UAACAGGGGGCCACAGCAGAAGCGUUCACGUCGCAGCCCCUGUCAGCUUCUGGUGAAUCUGCGAAUUCUGCUGUAUAUCCC [A47C U80C],0.43
